Residue numbers refer to the chain shown, from its start. Values belong to the binder of their own block, whether it stands above or below them.
Target: T1, CNTF receptor-α (CNTFRα) (UniProt P26992 23-342, limits assumed)
T1 construct: also called CNTFRa; CNTF a-receptor
T1 sequence (looked up): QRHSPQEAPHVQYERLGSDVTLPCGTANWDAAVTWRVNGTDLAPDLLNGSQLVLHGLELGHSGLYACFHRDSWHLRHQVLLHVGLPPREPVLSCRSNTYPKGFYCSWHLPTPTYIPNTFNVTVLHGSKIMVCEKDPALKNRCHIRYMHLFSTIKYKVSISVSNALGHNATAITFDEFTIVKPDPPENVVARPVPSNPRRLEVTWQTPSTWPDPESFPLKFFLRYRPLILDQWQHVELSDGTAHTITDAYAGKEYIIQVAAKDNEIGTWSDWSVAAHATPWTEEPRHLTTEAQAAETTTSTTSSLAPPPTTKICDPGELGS
Experiment: solid phase binding assay on CNTFRα
Method: The relative binding affinities to CNTF receptor-α (CNTFRα) of hCNTF and different hCNTF variants were determined by solid phase binding assay as previously described (10). […] These variants, like DH-CNTF, have increased utility for treatment of obesity and associated diseases, such as diabetes.

B1: hCNTF (human ciliary neurotrophic factor), wild type (ligand)
chain: MAFTEHSPLTPHRRDLCSRSIWLARKIRSDLTALTESYVKHQGLNKNINLDSADGMPVASTDQWSELTEAERLQENLQAYRTFHVLLARLLEDQQVHFTPTEGDFHQAIHTLLLQVAAFAYQIEELMILLEYKIPRNEADGMPINVGDGGLFEKKLWGLKVLQELSQWTVRSIHDLRFISSHQTGIPARGSHYIANNKKM
notes: also called human CNTF
Relative Binding (hCNTF = 1): 1.1 relative (hCNTF = 1)

B3: (Gln167Ala/Thr169Leu) hCNTF (ligand)
chain: B1 chain with Q167A, T169L
Relative Binding (hCNTF = 1): 9.6 relative (hCNTF = 1)

B5: (Thr169Ile/His174Ala) hCNTF (ligand)
chain: B1 chain with T169I, H174A
notes: also called (Thr169Ile/His174Ala) hCNTP
Relative Binding (hCNTF = 1): 0.07 relative (hCNTF = 1)

B6: (Ser166Ala/Gln167Ala) hCNTF (ligand)
chain: B1 chain with S166A, Q167A
Relative Binding (hCNTF = 1): 8.1 relative (hCNTF = 1)

B7: (Gln167Ala/Thr169Leu/Phe178Ile) hCNTF (ligand)
chain: B1 chain with Q167A, T169L, F178I
Relative Binding (hCNTF = 1): 8.4 relative (hCNTF = 1)

B8: (Ser166Asp/Gln167His) hCNTF (ligand)
chain: B1 chain with S166D, Q167H
notes: also called DH-CNTF; DH-hCNTF
Relative Binding (hCNTF = 1): 22.8 relative (hCNTF = 1)

B9: (Asp30Gln/Ser166Asp/Gln167His) hCNTF (ligand)
chain: B1 chain with D30Q, S166D, Q167H
Relative Binding (hCNTF = 1): 30 relative (hCNTF = 1)

B13: (Ser166Asp/Gln167Ala) hCNTF (ligand)
chain: B1 chain with S166D, Q167A
Relative Binding (hCNTF = 1): 13.5 relative (hCNTF = 1)

B14: (Gln63Arg) hCNTF (ligand)
chain: B1 chain with Q63R
Relative Binding (hCNTF = 1): 2 relative (hCNTF = 1)

B15: (Ser166Asp/Gln167Ala/Arg177Phe) hCNTF (ligand)
chain: B1 chain with S166D, Q167A, R177F
Relative Binding (hCNTF = 1): 13.1 relative (hCNTF = 1)

B17: (Gln63Arg/Ser166Asp/Gln167His) hCNTF (ligand)
chain: B1 chain with Q63R, S166D, Q167H
Relative Binding (hCNTF = 1): 66 relative (hCNTF = 1)

B18: (Gln163Ser/Gln167His) hCNTF (ligand)
chain: B1 chain with Q163S, Q167H
Relative Binding (hCNTF = 1): 4.1 relative (hCNTF = 1)

B20: (Ser166Gly/Gln167Ala) hCNTF (ligand)
chain: B1 chain with S166G, Q167A
Relative Binding (hCNTF = 1): 7.5 relative (hCNTF = 1)

B21: (Lys160Gln/Gln167Ala) hCNTF (ligand)
chain: B1 chain with K160Q, Q167A
Relative Binding (hCNTF = 1): 11.7 relative (hCNTF = 1)

B22: (Gln167Thr) hCNTF (ligand)
chain: B1 chain with Q167T
Relative Binding (hCNTF = 1): 11.8 relative (hCNTF = 1)

B23: (Gln167Ala/His174Ala) hCNTF (ligand)
chain: B1 chain with Q167A, H174A
Relative Binding (hCNTF = 1): 3.6 relative (hCNTF = 1)

B25: (Phe152Ala/Ser166Asp/Gln167His) hCNTF (ligand)
chain: B1 chain with F152A, S166D, Q167H
Relative Binding (hCNTF = 1): 32 relative (hCNTF = 1)

Second part, the binder after the results:

Relative Binding (hCNTF = 1): 3.3 relative (hCNTF = 1)
B2: (Val170Arg/His174Ala) hCNTF (ligand)
chain: B1 chain with V170R, H174A

Relative Binding (hCNTF = 1): 8.8 relative (hCNTF = 1)
B4: (Val161Leu/Gln167Ala) hCNTF (ligand)
chain: B1 chain with V161L, Q167A

Relative Binding (hCNTF = 1): 9 relative (hCNTF = 1)
B10: (Gln167Ala) hCNTF (ligand)
chain: B1 chain with Q167A

Relative Binding (hCNTF = 1): 11.7 relative (hCNTF = 1)
B11: (Gln167Ala/Arg177Leu) hCNTF (ligand)
chain: B1 chain with Q167A, R177L

Relative Binding (hCNTF = 1): 6.9 relative (hCNTF = 1)
B12: (Gln167Ala/Thr169Ser) hCNTF (ligand)
chain: B1 chain with Q167A, T169S

Relative Binding (hCNTF = 1): 8.8 relative (hCNTF = 1)
B16: (Ser166His/Gln167Ala) hCNTF (ligand)
chain: B1 chain with S166H, Q167A

Relative Binding (hCNTF = 1): 3.1 relative (hCNTF = 1)
B19: (Lys160Gln/Gln167Thr) hCNTF (ligand)
chain: B1 chain with K160Q, Q167T

Relative Binding (hCNTF = 1): 21 relative (hCNTF = 1)
B24: (Ser166Asp/Gln167Ala/Thr169Leu) hCNTF (ligand)
chain: B1 chain with S166D, Q167A, T169L

Relative Binding (hCNTF = 1): 9.6 relative (hCNTF = 1)
B26: (Gln167Tyr) hCNTF (ligand)
chain: B1 chain with Q167Y

Relative Binding (hCNTF = 1): 12.4 relative (hCNTF = 1)
B27: (Ser166Asn/Gln167Ala) hCNTF (ligand)
chain: B1 chain with S166N, Q167A

Relative Binding (hCNTF = 1): 51 relative (hCNTF = 1)
B28: (Lys155Ala/Ser166Asp/Gln167His) hCNTF (ligand)
chain: B1 chain with K155A, S166D, Q167H

Source: patent US6565869 (ISTITUTO DI RICERCHE DI BIOLOGIA MOLECOLARE P ANGELETTI S P …, dated 2003)
